We go through one substance from PMC3631511.

Test [1] addresses ΔE22-Aβ_(1-39) (Japanese mutant Aβ). As to the kind of experiment: fluorescence polarisation. (In general: Fluorescence polarisation rises when a labelled molecule tumbles more slowly, as on binding a larger partner.)
Test [2] shares this target. Kind of test: critical concentration.

Substance “ΔE22-Aβ_(1-39) (Japanese mutant Aβ) (peptide)” registered a k (first-order rate constant of the increase in anisotropy on aggregation) in test [1] of 0.08 s⁻¹. This substance also came in with a critical concentration (Cr) in test [2] of 0.167 µM.
